Key:
[1] = substrate: C[C@H](O)C(=O)O; test: (§1) Substrate activity at rat MCT4 expressed in Xenopus laevis oocytes assessed as Km; assay type: cell-based; settings: Oocyte
[2] = substrate: CCC(=O)C(=O)O; test: as §1; assay type: cell-based; settings: Oocyte
[3] = substrate: C[C@H](O)C(=O)O; test: Substrate activity at chicken MCT3 expressed in yeast assessed as Km incubated for 3 mins by Michaelis-Menten analysis; settings: Gallus gallus
[4] = substrate: C[C@H](O)C(=O)O; test: (§2) Substrate activity at rat MCT1 expressed in Xenopus laevis oocytes assessed as Km; assay type: cell-based; settings: Oocyte
[5] = substrate: CCC(=O)C(=O)O; test: as §2; assay type: cell-based; settings: Oocyte
[6] = substrate: C[C@@H](O)C(=O)O; test: as §2; assay type: cell-based; settings: Oocyte
[7] = substrate: C[C@H](O)C(=O)O; test: (§3) Substrate activity at rat MCT2 expressed in Xenopus laevis oocytes assessed as Km by Michaelis-Menten analysis; assay type: cell-based; settings: Oocyte
[8] = substrate: CC(=O)C(=O)O; test: as §3; assay type: cell-based; settings: Oocyte
[9] = substrate: CC(C)(OCc1nn(Cc2ccccc2)c2ccccc12)C(=O)O; settings: Homo sapiens; Oocyte; time 10.0 min

B1: Monocarboxylate transporter 4 (Rattus norvegicus), O35910 (protein)
chain: MGGAVVDEGPTGIKAPDGGWGWAVLFGCFIITGFSYAFPKAVSVFFKELMHEFGIGYSDTAWISSILLAMLYGTGPLCSMCVNRFGCRPVMLVGGLFASLGMVAASFCRSIIQIYLTTGVITGLGLALNFQPSLIMLNRYFNKRRPMANGLAAAGSPVFLCALSPLGQLLQDHYGWRGGFLILGGLLLNCCVCAALMRPLVAPQASGGAEPHGPQRPSPRLLDLSVFRDRGFLIYAVAASIMVLGLFVPPVFVVSYAKDMGVPDTKAAFLLTILGFIDIFARPTAGFITGLKKVRPYSVYLFSFAMFFNGFTDLTGSTASDYGGLVVFCIFFGISYGMVGALQFEVLMAIVGTQKFSSAIGLVLLLEAVAVLIGPPSGGKLLDATKVYKYVFILAGAEVLTSSLVLLLGNFFCIGKRKRPEVTKPEEVASEEEKLHKPPVDVRVDSREVEHFLKAEPEKNGEVVHTPETSV
Km [1]: 22 mM
Km [2]: 57 mM

B2: Monocarboxylate transporter 3 (Gallus gallus), Q90632 (protein)
chain: MGRADPEEGQLPAPVKPPDGGWGWIVLFGCFVITGFSYAFPKAVSVYFKELMKDFHVGYSDTAWISSIMLAMLYGTGPVCSIMVNQFGCRPVMLIGGLLASSGMILASFTTNIIELYLTAGVLTGLGMALNFQPSLIMLGTYFDKRRPLANGLAAAGSPVFLSSLSPLGQVLLEKFGWRGGFLIMGGLLLNCCTCGAVMRPLDAGMKRKTEKAQDKYEAKEMLPMGGKSEEGISTTDGTKKTKKAKKKPKKGKKLLDFSIFSNRGFIIYTISKFILVLGLFVPPILLVNYAKDTGVPDTEAAFLLSIIGFIDIFARPACGMVAGLKWVRPHVAYLFSFAMLFNGLTDICSARASNYTGLVIFCVFFGISYGMVGALQFEVLMAIVGSQKFSSAIGLVLLIEAFAVLIGPPSAGRLVDALKNYEVIFYLAGSEVVLSALFLAMATYCCLNRGKKTPPPEKNPSAGGGSDTEEAESDVQEAEEHSSDNHQPAHGTDKATVAANEEANHVEDEQSGEGGRCPEADGEVSSRAGCNADQTVERDSF
Km [3]: 6 mM

B3: Monocarboxylate transporter 1 (Rattus norvegicus), P53987 (protein)
chain: MPPAIGGPVGYTPPDGGWGWAVVVGAFISIGFSYAFPKSITVFFKEIEIIFSATTSEVSWISSIMLAVMYAGGPISSILVNKYGSRPVMIAGGCLSGCGLIAASFCNTVQELYFCIGVIGGLGLAFNLNPALTMIGKYFYKKRPLANGLAMAGSPVFLSTLAPLNQAFFGIFGWRGSFLILGGLLLNCCVAGSLMRPIGPQQGKVEKLKSKESLQEAGKSDANTDLIGGSPKGEKLSVFQTVNKFLDLSLFTHRGFLLYLSGNVVMFFGLFTPLVFLSNYGKSKHFSSEKSAFLLSILAFVDMVARPSMGLAANTRWIRPRVQYFFAASVVANGVCHLLAPLSTTYVGFCIYAGVFGFAFGWLSSVLFETLMDLVGPQRFSSAVGLVTIVECCPVLLGPPLLGRLNDMYGDYKYTYWACGVILIIAGLYLFIGMGINYRLVAKEQKAEEKKRDGKEDETSTDVDEKPKKTMKETQSPAPLQNSSGDPAEEESPV
Km [4]: 3.5 mM
Km [5]: 0.2 mM
Km [6]: > 60 mM

B4: Monocarboxylate transporter 2 (Rattus norvegicus), Q63344 (protein)
chain: MPSESSVKATAAPPPFPLPPDGGWGWVVVCASFISIGFSYAFPKAVTVFFNDIKDIFKTTSSQIAWISSIMLAVMYAGGPISSVLVNNYGSRPVVIVGGLLCCTGMILASFSSSVIELYLTVGFIGGLGLAFNLQPALTIIGKYFYRKRPLANGFAMAGSPVFLSTLAPFNQFLFNSYGWKGSFLILGAIFLHSCVAGCLMRPVGPSPRAAKSKSKVGSRQDSSTKRLSKVSTAEKINRFLDFGLFTHRGFLIYLSGNVVLFLGMFAPIIFLAPYAKDKGVDDYNSAFLLSVMAFTDMFARPSVGLIANTSLIRPRIQYLFSVAIMFTGICHLLCPLAHSYTALVVYVIFFGIGFGSISSLLFECLMDQVGASRFSSAVGLVTIVECCPVLFGPPLAGKLLDITGQYKYLYIASGIVVLSSGIYLLICNAINYRLLEKERKREKARRKKSASQASKEMEALSRSKQDDVTVKVSNTHNPPSDRDKESSI
Km [7]: 0.75 mM
Km [8]: 0.08 mM

B5: Monocarboxylate transporter 4 (Homo sapiens), O15427 (protein)
chain: MGGAVVDEGPTGVKAPDGGWGWAVLFGCFVITGFSYAFPKAVSVFFKELIQEFGIGYSDTAWISSILLAMLYGTGPLCSVCVNRFGCRPVMLVGGLFASLGMVAASFCRSIIQVYLTTGVITGLGLALNFQPSLIMLNRYFSKRRPMANGLAAAGSPVFLCALSPLGQLLQDRYGWRGGFLILGGLLLNCCVCAALMRPLVVTAQPGSGPPRPSRRLLDLSVFRDRGFVLYAVAASVMVLGLFVPPVFVVSYAKDLGVPDTKAAFLLTILGFIDIFARPAAGFVAGLGKVRPYSVYLFSFSMFFNGLADLAGSTAGDYGGLVVFCIFFGISYGMVGALQFEVLMAIVGTHKFSSAIGLVLLMEAVAVLVGPPSGGKLLDATHVYMYVFILAGAEVLTSSLILLLGNFFCIRKKPKEPQPEVAAAEEEKLHKPPADSGVDLREVEHFLKAEPEKNGEVVHTPETSV
Km [9]: 2.8 mM

Source: ChEMBL document CHEMBL5233245, “Monocarboxylate transporter 1 and 4 inhibitors as potential therapeutics for treating solid tumours: A review with structure-activity relationship insights” (Eur J Med Chem, 2020)
